Data taken from article PMC12631912, “A Multifunctional Molecular Probe for Multimodal Imaging‐Guided Potent Photothermal/Photodynamic Therapy of Endometriosis” (Advanced Science, 2025).

Experiments:
[1] = In vivo fluorescence imaging, off-target effects and clearance in healthy mice; design: species or system BALB/c nude mice
EESCs = experiment: Cellular internalization of probes by flow cytometry; type: cell-based, human; details: EESC, in Figure 3g
Experimental: Furthermore, the cellular internalization of the probes was quantitatively evaluated using flow cytometry. […] After these incubation periods, the cells were washed three times with PBS, trypsinized, and collected. The harvested cells were then analyzed using an Attune NxT flow cytometer (Invitrogen, USA). The data obtained was analyzed utilizing NovoExpress 1.4.0 software (Agilent, USA).

Substance | tissue distribution by serial in vivo fluorescence imaging ([1]; healthy BALB/c nude mice, ICG 1000 µg kg^−1 i.v.) | fluorescence signal as % of the 24 h level ([1]; healthy BALB/c nude mice, ICG 1000 µg kg^−1 i.v., within 7 days, n = 3) | ex vivo fluorescence of major organs ([1]; healthy nude mice, 10 days post-injection, heart, liver, spleen, lungs, kidneys) | internalized probes by flow cytometry (EESCs; C ICG = 2.5 µg mL^−1, 1 h incubation) | internalized probes by flow cytometry (EESCs; C ICG = 2.5 µg mL^−1, 4 h incubation)
c(RGDyK)‐ICG‐lys‐DTPA@Gd (head to tail) [cRGD‐ILD, targeting theranostic probe integrating cRGD peptide, ICG fragment and DTPA@Gd complex] | no specific tissue distribution | ≈ 14.75% | minimal residual fluorescence | – | –
ICG‐lys‐DTPA@Gd [ILD] | – | – | – | 74.68% | 94.41%
